Changes are numbered by the printed parent chain.
T1: bovine LPL (bovine, UniProt P11151 29-478, limits assumed)
T1 sequence (looked up): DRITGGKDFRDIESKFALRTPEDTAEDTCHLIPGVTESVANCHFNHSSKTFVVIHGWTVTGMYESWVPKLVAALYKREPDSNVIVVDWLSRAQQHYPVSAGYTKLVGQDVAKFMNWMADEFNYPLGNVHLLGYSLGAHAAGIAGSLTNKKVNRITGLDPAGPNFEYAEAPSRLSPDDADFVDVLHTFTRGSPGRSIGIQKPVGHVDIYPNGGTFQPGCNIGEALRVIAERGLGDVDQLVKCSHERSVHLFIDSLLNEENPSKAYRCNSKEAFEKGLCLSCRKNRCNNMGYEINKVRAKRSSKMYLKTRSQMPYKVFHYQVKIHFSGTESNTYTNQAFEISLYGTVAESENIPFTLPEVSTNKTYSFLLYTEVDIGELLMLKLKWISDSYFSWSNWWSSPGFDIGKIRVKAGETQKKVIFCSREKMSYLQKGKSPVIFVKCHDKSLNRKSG

T2: mANGPTL3(17-455)-His (Mus musculus, UniProt Q9R182 17-455)
T2 construct: Bought protein (R&D Systems); also called full-length mature ANGPTL3 from Mus musculus with a C-terminal decahistidine tag
T2 sequence: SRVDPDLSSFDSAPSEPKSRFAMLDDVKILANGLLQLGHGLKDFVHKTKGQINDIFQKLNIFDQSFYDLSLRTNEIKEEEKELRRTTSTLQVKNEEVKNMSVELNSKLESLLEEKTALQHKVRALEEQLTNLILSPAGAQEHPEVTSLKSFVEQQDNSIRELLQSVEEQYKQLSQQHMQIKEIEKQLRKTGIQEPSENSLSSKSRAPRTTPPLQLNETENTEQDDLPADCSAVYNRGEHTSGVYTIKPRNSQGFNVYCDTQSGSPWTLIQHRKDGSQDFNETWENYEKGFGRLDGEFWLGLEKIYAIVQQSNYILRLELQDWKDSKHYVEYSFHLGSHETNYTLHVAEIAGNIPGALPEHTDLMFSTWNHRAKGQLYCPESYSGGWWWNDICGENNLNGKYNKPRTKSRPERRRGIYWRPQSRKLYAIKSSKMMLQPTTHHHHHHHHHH

T3: hANGPTL3(17-460)-His (human, UniProt Q9Y5C1 17-460)
T3 construct: Bought protein (R&D Systems); also called full-length mature human ANGPTL3 with a C-terminal decahistidine tag; Human ANGPTL3 (17-460)-His
T3 sequence: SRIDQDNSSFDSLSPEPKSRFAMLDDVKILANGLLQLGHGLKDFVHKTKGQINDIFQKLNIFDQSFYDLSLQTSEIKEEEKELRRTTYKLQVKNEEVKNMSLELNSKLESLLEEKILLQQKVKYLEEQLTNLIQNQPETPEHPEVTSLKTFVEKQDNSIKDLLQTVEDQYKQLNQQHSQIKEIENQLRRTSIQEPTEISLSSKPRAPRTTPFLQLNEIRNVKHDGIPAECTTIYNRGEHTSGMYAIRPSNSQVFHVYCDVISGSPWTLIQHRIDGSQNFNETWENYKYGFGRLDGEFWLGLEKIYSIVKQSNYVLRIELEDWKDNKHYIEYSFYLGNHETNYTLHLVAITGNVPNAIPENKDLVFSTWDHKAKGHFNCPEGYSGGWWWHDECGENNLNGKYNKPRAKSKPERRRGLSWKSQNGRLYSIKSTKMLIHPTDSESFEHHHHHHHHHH

B1: hANGPTL4(26-148)-mFc (Fc fusion)
chain: GPVQSKSPRFASWDEMNVLAHGLLQLGQGLREHAERTRSQLSALERRLSACGSACQGTEGSTDLPLAPESRVDPEVLHSLQTQLKAQNSRIQQLFHKVAQQQRHLEKQHLRIQHLQSQFGLLDEPRGPTIKPCPPCKCPAPNLLGGPSVFIFPPKIKDVLMISLSPIVTCVVVDVSEDDPDVQISWFVNNVEVHTAQTQTHREDYNSTLRVVSALPIQHQDWMSGKEFKCKVNNKDLPAPIERTISKPKGSVRAPQVYVLPPPEEEMTKKQVTLTCMVTDFMPEDIYVEWTNNGKTELNYKNTEPVLDSDGSYFMYSKLRVEKKNWVERNSYSCSVVHEGLHNHHTTKSFSRTPGK
B2: H4H1250P (antibody, IgG4, V domains shown)
VH: QVQLVESGGGVVQPGRSLRLSCAASGFTFSSYGMHWVRQAPGKGLEWVAVISNDGSNKYYVDSVKGRFTMGRDNSKNTLYLQMNSLRVEDTAVYYCAKGAGTLYYYYYGMDVWGQGTTVTVSS
VL: DIQMTQSPSTLSASVGNRVTITCRASQSISSWLAWYQQKPGKAPKFLIYKASSLESGVPSRFSGSGSGTEFTLTITSLQPDDFATYYCQQYNIYSWTFGQGTKVEIK
B3: H4H1279P (antibody, IgG4, V domains shown)
VH: QVQLVESGGGLVKPGGSLRLSCAASGFTFSDYYMSWIRQAPGKGLEWVSYIGSSGVNMYYADSVKGRFTISRDNAKNSLYLEMNSLRAEDTAVYYCARDSSQLGFDYWGQGTLVTVSS
VL: DIQMTQSPSSLSASVGDRVTITCRTSQNIINFLNWYQQKPGKAPKLLIYTTSTLQSGVPSRFSGSGSGTDFTLSINSLQPEDFATYFCQQTYSNPLTFGGGTKLEIKR
B4: H4H1292P (antibody, IgG4, V domains shown)
VH: B3 VH with G52S, V56S, N57T, M58I, E82Q
VL: B3 VL with T25A, N28S, N31S, T51A, T53S, S74T, N76S, F87Y, L104V
B5: H1M896N (antibody, V domains shown)
VH: EVQLLESGGGLVQPGGSLRLSCAASGFTFSTYAMSWVRQAPGKGLEGVSGISGTGYRTYYADSVKGRFTISRDNSKNSLYLQMNSLRAEDTAVYYCAKDRGLLWFGELTYWGQGTLVTVSS
VL: DIQMTQSPSTLSASVGDRVTITCRASQSINNWLAWYQQKPGKAPNLLIYKASSLESGVPSRFSGSGSGTEFTLTISSLQPDDFATYYCQQYNDYWTFGQGTKVEIK
B6: hANGPTL3(17-169)-mFc (Fc fusion)
chain: SRIDQDNSSFDSLSPEPKSRFAMLDDVKILANGLLQLGHGLKDFVHKTKGQINDIFQKLNIFDQSFYDLSLQTSEIKEEEKELRRTTYKLQVKNEEVKNMSLELNSKLESLLEEKILLQQKVKYLEEQLTNLIQNQPETPEHPEVTSLKTFVEEPRGPTIKPCPPCKCPAPNLLGGPSVFIFPPKIKDVLMISLSPIVTCVVVDVSEDDPDVQISWFVNNVEVHTAQTQTHREDYNSTLRVVSALPIQHQDWMSGKEFKCKVNNKDLPAPIERTISKPKGSVRAPQVYVLPPPEEEMTKKQVTLTCMVTDFMPEDIYVEWTNNGKTELNYKNTEPVLDSDGSYFMYSKLRVEKKNWVERNSYSCSVVHEGLHNHHTTKSFSRTPGK

Experiments:
bovine LPL [1] = target: T1, bovine LPL; assay: cell-based or functional assay
mANGPTL3(17-455)-His = target: T2, mANGPTL3(17-455)-His; assay: SPR Biacore, antigen captured, 37C, pH 7.4, HBS-EP
Procedure: (§1) All kinetic binding experiments were performed at 25° C. or 37° C. on a BIACORE™ T200 label-free molecular interaction instrument (GE Healthcare) using a CM5 sensor chip. Briefly, an antigen capture surface was generated by covalently coupling either an anti-mouse IgG-specific antibody (anti-mFc; GE Healthcare; catalog #BR-1008-38) or an anti-pentahistidine-specific antibody (Qiagen; catalog #34660) to the surface of a CM5 sensor chip using a standard amine coupling method.

hANGPTL3(17-460)-His [2] = target: T3, hANGPTL3(17-460)-His; assay: SPR Biacore, antigen captured, 37C, pH 7.4, HBS-EP
Procedure: as §1

hANGPTL3(17-460)-His [3] = target: T3, hANGPTL3(17-460)-His; assay: Biacore cross-competition, 25C; first antibody at 25 µg/ml on captured antigen
Procedure: (§2) Cross competition experiments were performed at 25° C. on a Biacore essentially as described in Example 3 above. […] The results are shown in Table 8 with binding response for the first antibody (mAb1), followed by binding response of the second antibody (mAb2) on the ANGPTL3 surface pre-loaded with the first antibody. Numbers in bold indicate that the antibody pairs are able to bind to hANGPTL3 simultaneously. Numbers in italics indicate that that the antibody pairs are able to bind to hANGPTL3 simultaneously when added sequentially in one direction but not the other. Brackets indicate self-self competition.

hANGPTL3(17-169)-mFc = target: B6; assay: SPR Biacore, antigen captured, 25C, pH 7.4, HBS-EP
Procedure: as §1

hANGPTL3(17-460)-His [4] = target: T3, hANGPTL3(17-460)-His; assay: SPR Biacore, antigen captured, 25C, pH 7.4, HBS-EP
Procedure: as §1

hANGPTL3(17-460)-His [5] = target: T3, hANGPTL3(17-460)-His; assay: Biacore cross-competition; second antibody after pre-loading with competitor H4H1292P
Procedure: as §2

hANGPTL3(17-460)-His [6] = target: T3, hANGPTL3(17-460)-His; assay: Biacore cross-competition; second antibody after pre-loading with competitor H4H1279P
Procedure: as §2

hANGPTL3(17-460)-His [7] = target: T3, hANGPTL3(17-460)-His; assay: Biacore cross-competition; second antibody after pre-loading with competitor H1M896N
Procedure: as §2

hANGPTL3(17-460)-His [8] = target: T3, hANGPTL3(17-460)-His; assay: Biacore cross-competition; second antibody after pre-loading with Negative Control
Procedure: as §2

hANGPTL3(17-460)-His [9] = target: T3, hANGPTL3(17-460)-His; assay: Biacore cross-competition; second antibody after pre-loading with competitor H4H1250P
Procedure: as §2

bovine LPL [10] = target: T1, bovine LPL; assay: cell-based or functional assay; remark: listed apart in the source

| Kd (mANGPTL3(17-455)-His) [nM] | koff (mANGPTL3(17-455)-His) [s⁻¹] | kon (mANGPTL3(17-455)-His) [M⁻¹ s⁻¹] | t1/2 (mANGPTL3(17-455)-His) [min] | Kd (hANGPTL3(17-460)-His [2]) [nM] | koff (hANGPTL3(17-460)-His [2]) [s⁻¹] | kon (hANGPTL3(17-460)-His [2]) [M⁻¹ s⁻¹] | t1/2 (hANGPTL3(17-460)-His [2]) [min] | mAb1 binding response (RU) (hANGPTL3(17-460)-His [3]) | Kd (hANGPTL3(17-169)-mFc) [nM] | koff (hANGPTL3(17-169)-mFc) [s⁻¹] | kon (hANGPTL3(17-169)-mFc) [M⁻¹ s⁻¹] | t1/2 (hANGPTL3(17-169)-mFc) [h] | Kd (hANGPTL3(17-460)-His [4]) [nM] | koff (hANGPTL3(17-460)-His [4]) [s⁻¹] | kon (hANGPTL3(17-460)-His [4]) [M⁻¹ s⁻¹] | t1/2 (hANGPTL3(17-460)-His [4]) [min] | mAb2 binding response (RU) (hANGPTL3(17-460)-His [5]) | mAb2 binding response (RU) (hANGPTL3(17-460)-His [6]) | mAb2 binding response (RU) (hANGPTL3(17-460)-His [8]) | Binder | further results |
| --- | --- | --- | --- | --- | --- | --- | --- | --- | --- | --- | --- | --- | --- | --- | --- | --- | --- | --- | --- | --- | --- |
|  |  |  |  |  |  |  |  |  |  |  |  |  |  |  |  |  |  |  |  | B1 | EC50 (nM), inhibition of LPL activity (bovine LPL [1]): 0.2 nM |
| 0.486 | 0.00155 | 3.18e+06 | 7 | 0.324 | 0.00113 | 3.5e+06 | 10 | 210 | 0.519 | 0.000651 | 1.25e+06 | 0.3 | 0.726 | 0.000657 | 904000 | 18 | 220 | 213 | 187 | B2 | mAb2 binding response (RU) (hANGPTL3(17-460)-His [7]): -4 RU |
| 0.167 | 0.000359 | 2.15e+06 | 32 | 0.381 | 0.00181 | 4.74e+06 | 6 | 45 | 0.00841 | 5.53e-06 | 658000 | 34.8 | 0.394 | 0.000114 | 288000 | 102 | -3 |  | 47 | B3 | mAb2 binding response (RU) (hANGPTL3(17-460)-His [7]): 47 RU; mAb2 binding response (RU) (hANGPTL3(17-460)-His [9]): 9 RU |
| 0.38 | 0.00149 | 3.92e+06 | 8 | 1.02 | 0.00194 | 1.89e+06 | 6 | 48 | 0.257 | 0.000177 | 686000 | 1.08 | 0.727 | 0.000248 | 341000 | 47 |  | -1 | 48 | B4 | mAb2 binding response (RU) (hANGPTL3(17-460)-His [7]): 50 RU; mAb2 binding response (RU) (hANGPTL3(17-460)-His [9]): 8 RU |
| 0.682 | 0.00247 | 3.62e+06 | 5 | 0.158 | 0.00053 | 3.36e+06 | 22 | 171 |  |  |  |  |  |  |  |  | 182 | 186 | 149 | B5 | mAb2 binding response (RU) (hANGPTL3(17-460)-His [9]): -4 RU |
|  |  |  |  |  |  |  |  |  |  |  |  |  |  |  |  |  |  |  |  | B6 | IC50 for blocking LPL (bovine LPL [10]): 47 nM; EC50 (nM), inhibition of LPL activity (bovine LPL [1]): 16 nM |

Reference: patent publication US20150197564A1 (Regeneron, published 2015)
